Measurements: article PMC11889585, “Characterization of the putative yeast mitochondrial triacylglycerol lipase Tgl2” (The Journal of Biological Chemistry, 2025)

Target: the molecule itself
Experiment: non-reducing SDS-PAGE with immunoblot; whole cell lysate, crude or isolated mitochondria of yeast (tgl2Δ, yme1Δ, other deletion strains) expressing HA-tagged Tgl2 variants; reducing agents omitted during SDS-PAGE; anti-HA immunodecoration; dimer-sized band

B1: N terminally hemagglutinin (HA) tagged Tgl2 (natural protein, S. cerevisiae, UniProt P54857 1-326, looked up)
chain: MKNDNKANDIIIDSVKVPDSYKPPKNPIVFCHGLSGFDKLILIPSVFHLTNLISNSIVHNMAENFMQDDEDKSDNKYTNLLEIEYWIGVKKFLQSKGCTVITTKVPGFGSIEERAMALDAQLQKEVKKIESKDKRHSLNLIAHSMGGLDCRYLICNIKNRNYDILSLTTISTPHRGSEMADYVVDLFENLNALRVSQKILPICFYQLTTAYMKYFNLVTPNSPKVSYFSYGCSFVPKWYNVFCTPWKIVYERSKGCPNDGLVTINSSKWGEYRGTLKDMDHLDVINWKNKLQDDWSKFFRTTTVGEKVDILNFYLKITDDLARKGF
notes: Tgl2, putative mitochondrial triacylglycerol lipase of the intermembrane space, S. cerevisiae; also called HA-Tgl2; native-like HA-Tgl2; source: S. cerevisiae (tgl2Δ, yme1Δ and other deletion strains), overexpressed from plasmid pYX142; in whole cell lysate, crude or isolated mitochondria; not shown: HA, N-terminal, kept
**Q.** For B1, which “stoichiometry N” value is on record?
**A.** 2
